In a protein production outcome set (Wang et al. 2014):

Experiment: label from the status in PepcDB records

Sequence	protein production
RTHTGEKPYACSHCDKTFRQKQLLDMHFKRYHDPNFVPAAFVCSKCGKTFTRRNTMARHADNCAGPDGVEGEN	not failed
MSQAFPGPHGAPATGHVPVLRLGEVLLVTLQGDLHDSTAQQLQEDLAETIVRSGATGVVIDVSGVEIVDSFLGRILAEIAGQTGLLAARTVLVGMRPAVAITLVELGLTLPGVHTALSTEVAMELLRQQAPSSRFGGLRQESQ	not failed
PGSTDFNGALILGLGIDLEKAVGWKNAFFEVEGLQYNGQPVNFAAGSVQGYNSIEAGPPLNRTELYQLWLNQTFLDNRLSFRVGKLIPSMNFGYVGRPFVTQTNPQLFTSTTGLIYTPVFVGPAMLGFIPGYYNSAFGLYGSWKSWGAPGDNPATPNGWYTQAGIYDGRGAQGVQTGLTWPNFSGALFSVAEVGGTWTPYADDPATGWGSVAVGGWRQSGPLTAPGGAFEAQTGGMYAYLVQKLGKFRDSEDQNGIVGFVQGGWNSSSTALMHSSLGFGLTFIAPFGDRPLDSYGFGFSWARLNANPLAGYGFNSYETMIQLYAQYHLVGNLFIQPVLTVLPTPGSGGAGAPSVSGTVQLTFPF	failed
MKLLSQLLLFTSLTFPLSSFAALGEHPIILIHGFQAGQLQTKPNHDAVVADGKNYWQDYWLAKADDRIDWPSQERVAGKISTDYIWPKLQELSKNNTCKNGCILVTHSTGDLVARHLLDNQENW	failed
MALKATIYKADLNIANMDSHHYADYQLTLALHPSETIERLMVRILAFARFADENLQFTKDLFETDEPALWQKDLTGQLEQWIELGQPSEDKLKKASARCKHVVVVTYGQQVDEWWKRNNKVKTLSNVEVWQLAPETTSQLEKLCERTMQLQLNVMDGEWTLLNDHEQVDVSWTKLH	failed
MPDPKPEVLDFLLSRRSRPAKTLALPVPDRAALAPILTGALRTPDHGKLEPWRLIVLEAGAMPRLAALADARAEALALDPDKSAKGRAQFAQSHLAVVVVARPEPSDKVPEIEQILSAGAVCLSLLNAAQAAGWGANWLTGWPAYDRGFLREGLGLAETEFVAGIVHIGSETVAPPERPRPDVASLTTWVSE	failed
MAHHHHHHSLDAAAATLPRKSGSVDRLVRLAEADMAGVNRLITDRMQSDVAIIPALAEHLIAAGGKRLRPLMTVAAARLAGADNDHFQKLAAAVEFIHTATLLHDDVVDGSQLRRGKVAAHLIWGGAQSVLVGDFLFARAFELMVETNSMKALEILARASRVIAEGEVLQLMRSHDLNLSQAVYLEIIQAKTAELFAAASEAGAVSAGVDVAKSEALRDYGLNLGLAFQLADDALDYGGATETLGKNAGDDFREGKATLPLLLAIARSGPREAEFWERAIGRREQTEADFRRARELIIGSGALDATLDLAADYADKAKAALAMFPANDWREALEELADFAVSRRA	not failed
MNTESVVEFLGNVPLLQKLPSSSLKKIAQVVVPKRYGKGDYVVREDQTWDGCYFILQGEAQVSGPDEEDNRSEFLLKQYDYFGVGLSGNVHSADIVAMSQLTCLVLPRDHCHLLETNSIWQSDTSLDKCSLVERILQLDPLELNIFRGITLPDAPIFGKVFGGQFVGQALAAASKTVDFLKVVHSLHSYFLLVGDIDIPIIYQVHRIRDGNNFATRRVDAVQKGNIIFILLASFQKEQQGFEHQESTMPSVPDPDTLLSLEELRESRITDPHLPRSYRNKVATRNFVPWPIEIRFCEPSNSTNQTKSPPRLNYWFRAKGRLSDDQALHRCVVAFASDLIFCGVGLNPHRRKGVKSAALSLDHAMWFHRPLRADEWLLYVIVSPTAHETRGFVTGQMFNRKGELVVSLTQEALLREARPPKPSGTSKL	failed
EQVQRFGDLDVHYNVFNSSFLQPNVASAVGLVRSKAQGVINVVPMEKGKPVEAAVTGSAKDLTGKVIPLEFRRVSEEGAIYNLAQFPISQRETLVFTIKVEAKGEPAQTFSFNKEIFPDE	not failed
MDVSLPCIKIQVQTRYIEEQSNPEYQRFVFAYLITIKNLSSQTVQLMSRRWLITDADGKQTVVEGDGVVGEQPRIKANDEYTYSSGTALDTPVGVMQGQYLMIDEQGESFTVEIEPFRLAVPHVLN	not failed
MTVTNMTEWFAKGVEALHHDHVYLARACFEQAVTEQRSPLSSSYLALCQAKTRGTFSDAIASAREAVAADPANPALYHNLGCIYLLAGKRTEAIETFRQGLRVGLEHHHHHH	not failed
MFGYRSNVPKVRLTTDRLVVRLVHDRDAWRLADYYAENRHFLKPWEPVRDESHCYPSGWQARLGMINEFHKQGSAFYFGLFDPDEKEIIGVANFSNVVRGSFHACYLGYSIGQKWQGKGLMFEALSAAIRYMQRTQHIHRIMANYMPHNKRSGDLLARLGFEKEGYAKDYLLIDGQWRDHVLTALTTPDWTPGR	failed
NGSERGVLLSVIDRTEERHAKGLRRQVDHRFDKLVGTISEGVLLMDDTGVFRDGNEAAQNILGRSLDEIIGSRFDDDIWNGLREDGSPLPNVEFPFWRAYVEREPVQEEVMGVYPPDAPPRWIRVNAQPLFRSGQEAPYAVLVSFDDITDERLKEEALQTSRDLLSSVLSSSL	failed
MATIHVDGKTLEVDGADNLLQACLSLGLDIPYFCWHPALGSVGACRQCAVKQYTDENDKRGRLVMSCMTPATDNTWISIEDEEAKQFRASVVEWLMTNHPHDCPVCEEGGHCHLQDMTVMTGHNERRYRFTKRTHQNQELGPFIAHEMNRCIACYRCVRYYKDYAGGTDLGVYGAHDNVYFGRVEDGVLESEFSGNLTEVCPTGVFTDKTHSERYNRKWDMQFAPSICHGCSSGCNISPGERYGEIRRIENRYNGSVNHYFLCDRGRFGYGYVNREDRPRQPLLVLSKQKLSLDGALDQAAALLKERKVVGIGSPRASLESNFALRELVGEGNFYSGINEGELDRLRLILQVMQEGPLPVPSIRDIEDHDAVFVLGEDLTQTAARIALALRQSVKGKAVEMAADMKVQPWLDAAVKNIAQHAQNPLFIASVSATRLDDVAEETVHAAPDDLARLGFAVAHAIDPSAPSVADLDPQAQAFAQRITDALLAAKRPLVVSGNSLGNKALIEAAANIAKALKQREKNGSISLVVGEANSLGLALFGGDSVEAALERLTSGQADAVVVLENDLYRRTDAARVDAALAAAKVVIVADHQQTATTAKAHLVLPAASFAEGDGTLVSQEGRAQRFFQVFDPTYYDARNMVREGWRWLHAIHSTLQGKRVDWTQLDHVTEAVAEAKPILAGIRDAAPAASFRIKGLKLAREPHRYSGRTAMRANISVHEPRTPQDIDSAFAFSMEGYSGSQEDRQQIPFAWSPGWNSPQAWNKFQDEVGGHLRAGDPGVRLIEPKGEGLDWFQAVPVPFSAKADSWKVVPLYHLFGSEENSSRAAPIQQRIPETYVALSKEDADRLGVNDGATLGFQLKGQALRLPLRIDEQLGAGLIGLPVGFAGIPAAIAGCSVEGLQ	failed
MEMESAAASTRFHQPHMERKMSAMACEIFNELRLEGKLCDVVIKVNGFEFSAHKNILCSCSSYFRALFTSGWNNTEKKVYNIPGISPDMMKLIIEYAYTRTVPITPDNVEKLLAAADQFNIMGIVRGCCEFLKSELCLDNCIGICKFTDYYYCPELRQKAYMFILHNFEEMVKVSAEFLELSVTELKDIIEKDELNVKQEDAVFEAILKWISHDPQNRKQHISILLPKVRLALMHAEYFMNNVKMNDYVKDSEECKPVIINALKAMYDLNMNGPSNSDFTNPLTRPRLPYAILFAIGGWSGGSPTNAIEAYDARADRWVNVTCEEESPRAYHGAAYLKGYVYIIGGFDSVDYFNSVKRFDPVKKTWHQVAPMHSRRCYVSVTVLGNFIYAMGGFDGYVRLNTAERYEPETNQWTLIAPMHEQRSDASATTLYGKVYICGGFNGNECLFTAEVYNTESNQWTVIAPMRSRRSGIGVIAYGEHVYAVGGFDGANRLRSAEAYSPVANTWRTIPTMFNPRSNFGIEVVDDLLFVVGGFNGFTTTFNVECYDEKTDEWYDAHGMSIYRSALSCCVVPGLANVEEYAARRDNFPGLALRDEVKYSASTSTLPVRASSFS	failed
MTVRYFAAAAAAAGIETESLEIATGTSVAELVERLGARNPELARVLKRCSYLCDEVAVRDMAKPLVTPQTVDVLPPFAGGLEHHHHHH	failed
MVKYAKTPKSFINIKDLGFALLETDELDGTIKYSNVTQTRGLQEISVETGGEIVNAYADGSIIESGTTDGEGKISMTMHAFPQEIRELIFNEIYNEAGVYSEERGKQNNYVAVWFKRERRDGSYQQVGLTKVMFADPNLEGKTAEEDWEFSSEESEGTAMHRIADGKRKILFDSSREGANVDSFFQELLNGAYDSKTEVDTGDSTTGESAAEALEHHHHHH	failed
MNNRELYGNIRDVYHLLQKNLDKAIEQYDISYVQFGVIQVLAKSGKVSMSKLIENMGCVPSNMTTMIQRMKRDGYVMTEKNPNDQRETLVYLTKKGEETKKQVDVQYSDFLKENCGCFTKEEEGILEDLLLKWKKHLN	not failed
MLLLWLVVLVIGAAYLTHRRLAPLQILGIVAAYVLLMGIFSSAPGWLLALIWVVLALKIALVALPQWRRKLFTAPVFRWFQRTLPPMSQTEREAIDAGTVWWDGELFSGRPDWRTLLAYPAPKLTEEEQAFIDGPTEALCAMVSDWQIGQDLDLPPEAWAHIKQHGFFALIIPKEYGGKGFSAYAHSQVAMKLATRSGDLASTVMVPNSLGPAELLLHYGTDEQRNRYLPRLARGEEIPCFALTGPLAGSDAGAMPDTGIICKGQWQGEEVIGLRLNWEKRYITLGPVATLLGLAFKAYDPDHLLGEQEELGISLALIPTDTPGVEIGKRHLPLGAAFMNGPNSGKDVFVPLDFLIGGQAMLGKGWMMLMNCLSVGRSISLPAVGTGAAKYTSLVTGQYANIREQFNVPLAAFEGIQESLARIGGNAWLMDSARLLTAKAVDLGEKPSVLSAILKYHLTERGRECIQHAMDVHGGKGIIMGPNNYLGRNWQGAPIFITVEGANILSRNLMIFGQGAIRCHPFVLKEMALAGREDHDQALKEFDDLLMKHILFAAGNAASTLVYGLGLGRFERVPGDALSQGYFRALNRQAAAFAMMADLSMMLLGGALKRRERLSARLGDVLSYLYLASAALKRYHDQGSPEYLQPLLRWAMEESLGQTERALDRLLDNFPNRFVGCALRVLVFPFGRRHKGPGDELDAEVAELIGRRKGDPALEELLAGCYRPQAEHDPVADLQRASDLLEDTAQLSKALYQAVKEGKVQPAPGQSGIDAAVKAGVLQPDDGQRLHEAEQARRKVIDVDAFDKAQLLAVPGKVR	failed
MVDDIFERGSKGSSDFFTGNVWVKMLVTDENGVFNTQVYDVVFEPGARTHWHSHPGGQILIVTRGKGFYQERGKPARILKKGDVVEIPPNVVHWHGAAPDEELVHIGISTQVHLGPAEWLGSVTEEEYRKATEGK	not failed
MESPTQTSEHIESMTEFLVKHYPDQLREISLSSDPKLHYPLFIEYAELVDDNPSLARQVFSDPEHYLRQFDDSAILAHKIALEHMKKFEEKIGIEKRFIHVRINTSGSPLERSPETFPSIGRVRVKHRGILMMLKGTVIRSGAVKMYEGEKMYRCRKCKHMFPIFPELESINSIVKPPFCPSQRSKACEGTNFDPVDDTVTRHDYQEIKIQENTQVLGVGVIPRSILVVLKDDLVDNVKAGDDVVVSGILTSKWSHDLKDVRCDLEPMLIANHVRRTNELKSEIDISDDLIEKFKNFWSHFRDTPLKGRNAILRGICPQVFGLFTVKLAVALTLIGGVQHVDASGTKVRGESHLLLIGDPGTGKSQFLKFAAKLSNRAVITTGLGSTSAGLTVTAVKDGGEWMLEAGALVLADGGLCCIDEFDSMREHDRATIHEAMEQQSISVAKAGLVTTLSTKTIVFGATNPKGQYDPDQYTKNPEWDAVVSSHILAEVQIEQDREVDDLTTIWPLPMLQRYIQFVKKNFRPVLSKEAEEIISSYYRLQRRSSTHNAARTTVRMLESLIRLAQGTSSVIVFINQNTPKTGTKERILMVLWCHAAHARLMFRNEVTRLDAITAILCIESSMTISAIVDSMGNALHSNFSEEPDQECILFRH	failed
